Test results: patent CN117866903A (BEILAI PHARMACEUTICAL CO LTD, dated 2024)

Assays:
[1] = target: T1, Human IL-17A重组蛋白 (Gly 24-Ala 155, C端6×His) (human, biotinylated in the ELISA of paragraph 251 (Biotin-IL-17A-His)); assay: ELISA: antibody coated at 2 μg/mL, Biotin-IL-17A-His titrated from 10 μg/mL (5-fold, 7 points), HRP-streptavidin
[2] = target: T1, Human IL-17A重组蛋白 (Gly 24-Ala 155, …); assay: cell-based or functional assay
[3] = target: T1, Human IL-17A重组蛋白 (Gly 24-Ala 155, …); assay: BLI (ForteBio OCTET R2): IL-17A-His at 5 μg/mL on HIS1K sensor, antibody 50-3.13 nM, 25℃

T1 sequence (chain, as listed by the source): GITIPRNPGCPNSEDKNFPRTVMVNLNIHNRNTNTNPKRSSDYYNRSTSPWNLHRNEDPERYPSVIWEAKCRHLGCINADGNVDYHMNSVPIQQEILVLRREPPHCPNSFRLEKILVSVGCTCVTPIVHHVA

Binder | EC50 [1] [µg/mL] | 串联单域抗体阻断活性检测 (293F-IL-17RA-IL-17Rc-ACT1-NFκB-Luc报告基因细胞株), IC50 [2] [nM] | Kd [3] [nM]
单域抗体3-H10 (Fc fusion, not shown: human IgG1 Fc of vector pcDNA3.4-hIgG1-Fc) EVQLVESGGGLVQPGGSLRLSCAASGFSIHIYAMGWYRQAPGKQRELVATITRGGVTNNADSVKGRFTISRDNAKNTAYLQMNSLKPEDTAVYYCNAGGTNGGYWGQGTQVTVSS | 1.22 |  | 
串联单域抗体1-C3-3-H10 (VHH-(GGGGS)3-VHH-IgG1 Fc) (Fc fusion, also called C3-H10; C3-H10重组蛋白; not shown: human IgG1 Fc) DVQLVESGGGLVEPGESLRLSCAAPGEDLGYYAIAWFRQAPGKEREVVSCVTSSGSSTNYLSSVKDRFTISIDNAKNTVYLQMNSLKPEDTAVYYCASTILLCSDYISAFGTWGQGTQVTVASGGGGSGGGGSGGGGSEVQLVESGGGLVQPGGSLRLSCAASGFSIHIYAMGWYRQAPGKQRELVATITRGGVTNNADSVKGRFTISRDNAKNTAYLQMNSLKPEDTAVYYCNAGGTNGGYWGQGTQVTVSS | 1.13 | 0.63 | 1.32
阳性对照抗体Ixekizumab (antibody, human IgG4 S228P, kappa, V domains shown, also called 阳性抗体; 依奇珠单抗) VH: QVQLVQSGAEVKKPGSSVKVSCKASGYSFTDYHIHWVRQAPGQGLEWMGVINPMYGTTDYNQRFKGRVTITADESTSTAYMELSSLRSEDTAVYYCARYDYFTGTGVYWGQGTLVTVSS VL: DIVMTQTPLSLSVTPGQPASISCRSSRSLVHSRGNTYLHWYLQKPGQSPQLLIYKVSNRFIGVPDRFSGSGSGTDFTLKISRVEAEDVGVYYCSQSTHLPFTFGQGTKLEIKR | 10.1 | 2.23 | 0.391
单域抗体1-C3 (Fc fusion, not shown: human IgG1 Fc of vector pcDNA3.4-hIgG1-Fc) DVQLVESGGGLVEPGESLRLSCAAPGEDLGYYAIAWFRQAPGKEREVVSCVTSSGSSTNYLSSVKDRFTISIDNAKNTVYLQMNSLKPEDTAVYYCASTILLCSDYISAFGTWGQGTQVTVAS | 5.28 |  | 
